Data from patent US20250025552A1 (published 2025).

Biological target: the molecule itself
Test: gel filtration (Superdex 200) of His-caspase 11 after incubation with oxPAPC; self-association
Description: To measure the ability of oxPAPC to oligomerize caspase-11, monomer or oligomer fractions of His-caspase 11 were incubated with oxPAPC for 2 hours on ice, and then analyzed with Superdex 200 (10/300).

B1: His-caspase 11 (full length mouse caspase 11 with a TEV cleavable N-terminal 6xHis tag) (enzyme, UniProt P70343 1-373, looked up)
chain: MAENKHPDKPLKVLEQLGKEVLTEYLEKLVQSNVLKLKEEDKQKFNNAERSDKRWVFVDAMKKKHSKVGEMLLQTFFSVDPGSHHGEANLEMEEPEESLNTLKLCSPEEFTRLCREKTQEIYPIKEANGRTRKALIICNTEFKHLSLRYGANFDIIGMKGLLEDLGYDVVVKEELTAEGMESEMKDFAALSEHQTSDSTFLVLMSHGTLHGICGTMHSEKTPDVLQYDTIYQIFNNCHCPGLRDKPKVIIVQACRGGNSGEMWIRESSKPQLCRGVDLPRNMEADAVKLSHVEKDFIAFYSTTPHHLSYRDKTGGSYFITRLISCFRKHACSCHLFDIFLKVQQSFEKASIHSQMPTIDRATLTRYFYLFPGN
notes: Monomer or oligomer fractions from size exclusion chromatography were incubated with oxPAPC and run on Superdex 200; not shown: TEV cleavable N-terminal 6xHis tag from the pFastBac HT A vector
binding result: binds
